# Substitutions are numbered along the chain they refer to. Numbers in names are those of the source.
# B1: I228V-F290K: double mutant I228V, F290K of N. polysaccharea amylosucrase (protein)
# chain: SPNSQYLKTRILDIYTPEQRAGIEKSEDWRQFSRRMDTHFPKLMNELDSVYGNNEALLPMLEMLLAQAWQSYSQRNSSLKDIDIARENNPDWILSNKQVGGVCYVDLFAGDLKGLKDKIPYFQELGLTYLHLMPLFKCPEGKSDGGYAVSSYRDVNPALGTIGDLREVIAALHEAGISAVVDFIFNHTSNEHEWAQRCAAGDPLFDNFYYIFPDRRMPDQYDRTLREVFPDQHPGGFSQLEDGRWVWTTFNSFQWDLNYSNPWVFRAMAGEMLFLANLGVDILRMDAVAKIWKQMGTSCENLPQAHALIRAFNAVMRIAAPAVFFKSEAIVHPDQVVQYIGQDECQIGYNPLQMALLWNTLATREVNLLHQALTYRHNLPEHTAWVNYVRSHDDIGWTFADEDAAYLGISGYDHRQFLNRFFVNRFDGSFARGVPFQYNPSTGDCRVSGTAAALVGLAQDDPHAVDRIKLLYSIALSTGGLPLIYLGDEVGTLNDDDWSQDSNKSDDSRWAHRPRYNEALYAQRNDPSTAAGQIYQDLRHMIAVRQSNPRFDGGRLVTFNTNNKHIIGYIRNNALLAFGNFSEYPQTVTAHTLQAMPFKAHDLIGGKTVSLNQDLTLQPYQVMWLEIA
# B2: F229L: single mutant F229L of N. polysaccharea amylosucrase (protein)
# chain: B1 chain with V228I, F229L, K290F
# B3: A289H-F290S: double mutant A289H, F290S of N. polysaccharea amylosucrase (protein)
# chain: B1 chain with V228I, A289H, K290S
# B4: I228A-F290H: double mutant I228A, F290H of N. polysaccharea amylosucrase (protein)
# chain: B1 chain with V228A, K290H
# B5: I228K-F290W: double mutant I228K, F290W of N. polysaccharea amylosucrase (protein)
# chain: B1 chain with V228K, K290W
# B6: I228V-F290R: double mutant I228V, F290R of N. polysaccharea amylosucrase (protein)
# chain: B1 chain with K290R
# B7: I228V-F229M: double mutant I228V, F229M of N. polysaccharea amylosucrase (protein)
# chain: B1 chain with F229M, K290F
# B8: F290H: single mutant F290H of N. polysaccharea amylosucrase (protein)
# chain: B1 chain with V228I, K290H
# B9: F290I: single mutant F290I of N. polysaccharea amylosucrase (protein)
# chain: B1 chain with V228I, K290I
# B10: F229M: single mutant F229M of N. polysaccharea amylosucrase (protein)
# chain: B1 chain with V228I, F229M, K290F
# B11: F290G: single mutant F290G of N. polysaccharea amylosucrase (protein)
# chain: B1 chain with V228I, K290G
# B12: I228T-F290K: double mutant I228T, F290K of N. polysaccharea amylosucrase (protein)
# chain: B1 chain with V228T
# B13: I228C-F229L: double mutant I228C, F229L of N. polysaccharea amylosucrase (protein)
# chain: B1 chain with V228C, F229L, K290F
# B14: I228T-F290H: double mutant I228T, F290H of N. polysaccharea amylosucrase (protein)
# chain: B1 chain with V228T, K290H
# B15: I228P-F290C: double mutant I228P, F290C of N. polysaccharea amylosucrase (protein)
# chain: B1 chain with V228P, K290C
# B16: I228M-F229M: double mutant I228M, F229M of N. polysaccharea amylosucrase (protein)
# chain: B1 chain with V228M, F229M, K290F
# B17: A289T-F290H: double mutant A289T, F290H of N. polysaccharea amylosucrase (protein)
# chain: B1 chain with V228I, A289T, K290H
# B18: F229V: single mutant F229V of N. polysaccharea amylosucrase (protein)
# chain: B1 chain with V228I, F229V, K290F
# B19: I228V-F229L: double mutant I228V, F229L of N. polysaccharea amylosucrase (protein)
# chain: B1 chain with F229L, K290F
# B20: I228K-F290L: double mutant I228K, F290L of N. polysaccharea amylosucrase (protein)
# chain: B1 chain with V228K, K290L
# B21: I228V-F290H: double mutant I228V, F290H of N. polysaccharea amylosucrase (protein)
# chain: B1 chain with K290H
# B22: I228L-F229L: double mutant I228L, F229L of N. polysaccharea amylosucrase (protein)
# chain: B1 chain with V228L, F229L, K290F
# B23: F290L: single mutant F290L of N. polysaccharea amylosucrase (protein)
# chain: B1 chain with V228I, K290L
# Experiment: HPLC screening of double-mutant libraries for variants able to glucosylate D-GlcpNAc
# Type: biochemical
# Settings: α-D-Glcp-(1→4)-α-D-GlcpNAc (ED) from sucrose and D-GlcpNAc, microplate format
# Method: The protocol was established to enable the rapid identification of clones for which D-GlcpNAc glucosylation was improved. To obtain higher amounts of enzymes and facilitate detection of glucosylated compounds upon HPLC screening, mutants were produced in 96-DeepWell Format plates. Storage microplates containing monomutants were thawed and replicated to inoculate a starter culture in 96-well microplates containing, in each well, 150 μL LB medium supplemented with ampicillin (100 μg/mL). After growth for 24 h at 30° C. under agitation (200 rpm), plates were duplicated into 96-Deep Well plates containing, in each well, 1.1 mL LB medium supplemented with ampicillin (100 μg/mL) and IPTG (1 mM) to induce GST-AS expression. Cultures were then grown for 24 h at 30° C. under agitation (200 rpm). Plates were centrifuged (20 min, 3000 g, 4° C.) and the supernatant was removed. The cell pellet was resuspended in 200 μL of lysozyme (0.5 mg/mL), followed by freezing at −80° C. for 8 to 12 h. After thawing at room temperature, 100 μL of sucrose and 100 μL of acceptor (each at a final concentration of 73 mM) were added to each well. Enzymatic reaction was incubated at 30° C. during 24 h under agitation. The DeepWell plates were then centrifuged (20 min, 3000 g, 4° C.) and 300 μL of the supernatant was transferred to a filter micro-plate (PVDF 0.2 μm) to be clarified. Supernatant filtration was carried out by centrifugation of the filter micro-plate (5 min, 2000 g, 4° C.) into a novel microplate for screening.
# The method for the expression of the mutant libraries is described in Example 1-1.
# Acceptor reaction products were analyzed by HPLC analysis using a C18-AQ column (Bischoff C18, 125×4 mm, 3 μm) kept at room temperature and eluted with 0.6 mL/min of ultra-pure water to detect α-D-Glcp-(1→4)-α-D-GlcpNAc formation (analysis time: 7 min). To evaluate the efficiency of the glucosylation reaction, it was carried out complementary HPLC analyses with a Biorad HPX-87K Carbohydrate Analysis column (maintained at 65° C., and eluted at a flow rate of 0.6 mL/min with ultra-pure water). By this way, it was possible to measure sucrose consumption by RI detection and concomitant α-D-Glcp-(1-4)-α-D-GlcpNAc formation by UV220 nm and determine mutant ability to synthesize the desired disaccharide α-D-Glcp-(1→4)-α-D-GlcpNAc (i.e., % Glucosyl units transferred onto acceptor derivatives=[Glucosyl units transferred onto acceptor derivatives]/[Glucosyl units transferred from initial sucrose]×100)
# All clones producing sucrose-utilizing variants were then picked and cultured in 96-well microplates. Following cell lysis, the acceptor reaction in the presence of D-GlcpNAc was then carried out in microplate format. HLPC analysis time for each clone was reduced to 7 min for detection of α-D-Glcp-(1→4)-α-D-GlcpNAc. When disaccharide formation was detected, complementary analyses were performed to determine sucrose consumption and disaccharide formation with more accuracy in order to calculate the glucosylation yield.
Molecule,Glusosylation Yield to synthesize ED [%],also measured
B1,89,
B2,49,
B3,40,
B4,88,
B5,50,
B6,25,
B7,29,
B8,46,
B9,16,
B10,79,
B11,53,
B12,72,
B13,78,
B14,56,
B15,22,
B16,28,
B17,40,
B18,88,
B19,56,
B20,47,
B21,61,
B22,35,
B23,,Glusosylation Yield to synthesize ED (listed as DM4_P2_A2): 55%; Glusosylation Yield to synthesize ED (listed as DM4_P2_G9): 20%

# — patent US20110086767A1, “MUTANTS OF GLYCOSIDE HYDROLASES AND USES THEREOF FOR SYNTHESIZING COMPLEX OLIGOSACCHARIDES AND DISACCHARIDE INTERMEDIATES” (Institut Pasteur, priority 2008, published 2011)
